Blank lines part the entries; values can stand above or below the binder they belong to.
Key:
mouse PROKR1 = target: T1, mouse PROKR1 (mouse (Mus musculus), UniProt Q9JKL1 1-393); assay: flow cytometry, HEK293 cells expressing the target
T1 construct: whole, on cells; Expressed on engineered HEK293 or CHO cells; also called mPROKR1; 293/mPROKR1
Protocol: (§1) Anti-PROKR antibodies generated in accordance with Example 1 were tested for the ability to bind to human, mouse, and monkey PROKR1 and PROKR2. For these experiments, HEK293 cells were engineered to express: human PROKR1; human PROKR2; mouse PROKR1; mouse PROKR2; cynomolgus monkey PROKR1; or cynomolgus monkey PROKR2. Binding of anti-human PROKR antibodies to the PROKR-expressing cell lines was measured by flow cytometry.
(§2) Adherent cells were collected using 1 mM EDTA in PBS, then washed, and re-suspended in cold PBS containing 5% FBS. For the binding experiments, each anti-PROKR antibody was added to 250,000 cells in 500 μl of PBS with 5% FBS (final antibody concentration of 13 nM). After incubation for 20 minutes at room temperature, the cells were washed with PBS containing 5% FBS. A secondary antibody, recognizing either human (Jackson Immuno Research, #115-135-205) or mouse Fc (BD Pharmigen, #550826) and conjugated to allophycyanin, was then added to the cell mixture at a final concentration of 13.3 nM. After incubating for 20 minutes on ice, the cells were washed and resuspended in PBS containing 5% FBS and then sorted and analyzed on a FACSCalibur (BD Biosciences) flow cytometer to determine relative binding by the candidate antibodies. The cell samples containing secondary antibody alone were used as negative control for FACS gating. Histograms of cells stained with anti-human PROKR antibodies were compared with cells stained with secondary alone. […] ND=not determined.

cynomolgus monkey PROKR1 = target: T2, cynomolgus monkey PROKR1 (cynomolgus monkey (Macaca fascicularis), UniProt G7PMD0 1-393); assay: flow cytometry, HEK293 cells expressing the target
T2 construct: whole, on cells; Expressed on engineered HEK293 cells; also called MfPROKR1; 293/mfPROKR1
Protocol: as §1, §2

human PROKR2 = target: T3, human PROKR2 (human, UniProt Q8NFJ6 1-384); assay: flow cytometry, HEK293 cells expressing the target, 13 nM antibody
T3 construct: Expressed on engineered HEK293 or CHO cells; also called hPROKR2; prokineticin receptor 2
Protocol: as §1, §2

mouse PROKR2 [1] = target: T4, mouse PROKR2 (mouse (Mus musculus), UniProt Q8K458 1-381); assay: as above
T4 construct: whole, on cells; Expressed on engineered HEK293 or CHO cells; also called mPROKR2; CHO/mPROKR2
Protocol: as §1, §2

human PROKR1 = human PROKR1 (human, UniProt Q8TCW9 1-393); assay: cell-based or functional assay
human PROKR2(1-53)-hFc = target: T5, human PROKR2(1-53)-hFc (human); assay: SPR (Biacore 4000), 25 C, antibody captured
T5 construct: also called soluble human PROKR2 (N-terminal portion)
Protocol: (§3) Kinetic experiments were carried out using HBS-EP (10 mM HEPES, 150 mM NaCl, 3 mM EDTA, 0.05% Surfactant P20, pH 7.4) as both the running buffer and the sample buffer. Antigen-antibody association rates were measured by injecting 2 concentrations (25 and 100 nM) of both human PROKR1 (1-62)-hFc (SEQ ID NO:179) and human PROKR2(1-53)-hFc (SEQ ID NO:180) over the captured antibody surface. Antibody-antigen association was monitored for 90 seconds while dissociation was monitored for 360 seconds. Kinetic on-rate (kₐ) and off-rate (kd) constants were determined from the data using Scrubber software version 2.0 c. Binding dissociation equilibrium constants (KD) and dissociative half-lives (t 1/2) were calculated from the kinetic rate constants as: KD=kd/kₐ and t 1/2=ln(2)/kd.

mouse PROKR2 [2] = target: T4, mouse PROKR2; assay: flow cytometry, HEK293 cells expressing the target
Protocol: as §1, §2

cynomolgus monkey PROKR2 = target: T6, cynomolgus monkey PROKR2 (cynomolgus monkey (Macaca fascicularis), UniProt A0A7N9CAJ3 1-384); assay: flow cytometry, HEK293 cells expressing the target
T6 construct: whole, on cells; Expressed on engineered HEK293 cells; also called MfPROKR2; 293/mfPROKR2
Protocol: as §1, §2

human PROKR1 (1-62)-hFc = target: T7, human PROKR1 (1-62)-hFc (human); assay: SPR (Biacore 4000), 25 C, antibody captured, antigen injected at 25 and 100 nM
T7 construct: also called soluble human PROKR1 (N-terminal portion)
Protocol: as §3

Sequence of human PROKR1 (Q8TCW9 whole entry): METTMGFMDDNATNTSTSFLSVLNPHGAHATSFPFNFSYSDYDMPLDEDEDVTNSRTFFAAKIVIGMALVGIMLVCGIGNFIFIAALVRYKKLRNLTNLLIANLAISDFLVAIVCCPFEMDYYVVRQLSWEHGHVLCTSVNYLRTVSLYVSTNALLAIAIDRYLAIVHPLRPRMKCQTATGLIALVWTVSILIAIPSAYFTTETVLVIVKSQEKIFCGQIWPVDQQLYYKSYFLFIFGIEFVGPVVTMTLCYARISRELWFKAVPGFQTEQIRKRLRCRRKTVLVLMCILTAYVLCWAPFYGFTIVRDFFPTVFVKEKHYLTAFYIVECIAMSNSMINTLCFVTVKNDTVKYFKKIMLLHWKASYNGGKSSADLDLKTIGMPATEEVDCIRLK
T7 sequence (chain, as listed by the source limits assumed): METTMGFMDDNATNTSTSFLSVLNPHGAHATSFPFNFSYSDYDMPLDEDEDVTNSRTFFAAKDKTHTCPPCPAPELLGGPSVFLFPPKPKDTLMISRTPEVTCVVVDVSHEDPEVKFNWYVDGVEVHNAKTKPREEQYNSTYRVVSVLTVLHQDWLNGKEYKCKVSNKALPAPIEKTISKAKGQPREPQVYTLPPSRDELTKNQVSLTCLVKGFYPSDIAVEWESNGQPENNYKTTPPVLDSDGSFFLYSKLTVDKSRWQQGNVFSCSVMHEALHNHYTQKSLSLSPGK
T3 sequence (Q8NFJ6 whole entry): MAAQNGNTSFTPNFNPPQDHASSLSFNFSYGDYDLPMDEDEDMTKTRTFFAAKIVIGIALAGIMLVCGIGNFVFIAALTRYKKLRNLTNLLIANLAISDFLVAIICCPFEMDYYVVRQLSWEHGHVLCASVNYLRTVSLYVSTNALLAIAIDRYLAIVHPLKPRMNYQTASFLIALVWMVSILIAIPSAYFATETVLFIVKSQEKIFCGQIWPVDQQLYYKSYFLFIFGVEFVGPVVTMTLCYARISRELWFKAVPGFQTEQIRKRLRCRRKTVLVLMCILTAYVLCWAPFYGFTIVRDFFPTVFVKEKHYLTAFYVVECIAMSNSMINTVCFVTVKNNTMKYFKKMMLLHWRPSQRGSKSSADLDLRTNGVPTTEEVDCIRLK
T2 sequence (G7PMD0 entry or part of it): as the sequence (Q8TCW9 whole entry) above, with V22A, T31A, S40G, I82V, V135I, K210R, V246F, D348N, V350A counted along it
T4 sequence (Q8K458 whole entry): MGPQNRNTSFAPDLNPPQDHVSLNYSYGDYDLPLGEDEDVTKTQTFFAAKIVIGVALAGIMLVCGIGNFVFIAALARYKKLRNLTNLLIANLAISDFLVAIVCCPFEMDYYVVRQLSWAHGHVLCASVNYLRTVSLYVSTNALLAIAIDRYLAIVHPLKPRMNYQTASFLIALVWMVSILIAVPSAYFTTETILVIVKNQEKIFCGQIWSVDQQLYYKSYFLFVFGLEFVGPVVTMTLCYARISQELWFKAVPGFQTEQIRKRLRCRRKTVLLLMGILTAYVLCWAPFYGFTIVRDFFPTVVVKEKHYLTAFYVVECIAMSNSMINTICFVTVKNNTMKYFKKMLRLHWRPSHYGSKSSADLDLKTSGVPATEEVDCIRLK
T1 sequence (Q9JKL1 whole entry): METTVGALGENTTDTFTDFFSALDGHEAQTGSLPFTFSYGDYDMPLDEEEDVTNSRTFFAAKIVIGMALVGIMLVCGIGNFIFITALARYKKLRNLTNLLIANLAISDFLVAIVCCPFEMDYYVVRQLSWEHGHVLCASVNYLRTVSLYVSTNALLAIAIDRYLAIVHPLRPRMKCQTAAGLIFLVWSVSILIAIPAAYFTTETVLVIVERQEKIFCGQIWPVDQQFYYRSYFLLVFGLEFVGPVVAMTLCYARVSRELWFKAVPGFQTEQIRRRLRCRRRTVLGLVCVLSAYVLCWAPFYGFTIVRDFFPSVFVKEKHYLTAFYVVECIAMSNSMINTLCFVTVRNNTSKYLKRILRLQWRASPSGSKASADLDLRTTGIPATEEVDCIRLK
T6 sequence (A0A7N9CAJ3 entry or part of it): as the sequence (Q8NFJ6 whole entry) above, with T11A, R357W, D364E, T374A counted along it

binding result (mouse PROKR1): no binding
binding result (cynomolgus monkey PROKR1): no binding
binding result (human PROKR2): binds
binding result (mouse PROKR2 [1]): binds
B1: H2M6385N (antibody, V domains shown)
VH: EVQVVESGGGLVKPGGSLRLSCAASGFTFSNVWMTWVRQAPGKGLEWVGRIKSKIEGGTTDYAASVKGRFTISRDDSKNTQSLQMNSLKSEDTAVYYCSTGHLAYWGQGTLVIVSS
VL: DIVMTQTPLSSPVSLGQPASISCRSSQSLVHSDGSTYLSWLQQRPGQPPRLLIYKISNRFSGVPDRFSGSGAGTDFTLKISRVEAEDVGIYYCMQATQFPTFGQGTKVEIK
notes: the prefix H2M is not spelled out

Block (%), calcium flux, hPROKR1 + PK1 (20 nM hPK1) (human PROKR1): 92%
IC50 (nM), inhibition of calcium flux, hPROKR1 + PK1 (20 nM hPK1) (human PROKR1): 14.9 nM
IC50 (nM), inhibition of calcium flux, hPROKR1 + PK2 (20 nM hPK2) (human PROKR1): 16.2 nM
binding result (mouse PROKR1): no binding
binding result (mouse PROKR2 [2]): no binding
binding result (cynomolgus monkey PROKR1): no binding
binding result (cynomolgus monkey PROKR2): no binding
binding result (human PROKR2): binds
Kd (human PROKR1 (1-62)-hFc): 4.85 nM
koff (human PROKR1 (1-62)-hFc): 0.00103 s⁻¹
kon (human PROKR1 (1-62)-hFc): 212000 M⁻¹ s⁻¹
t½ (human PROKR1 (1-62)-hFc): 11 min
B2: H1M6386N (antibody, mouse IgG1, V domains shown)
VH: NVQLVESGGGLVKPGGSLRLSCVASGFTFANAWMTWVRQAPGKGLEWVGRIKSKTDGGTTDHAAPVKGRFIVSRDDSKSTLYLQMNSLKTEDTAVYYCTNYAFQLWGQGTLVTVSS
VL: DIVMTQTPLSSLVTLGQSASISCRSSQGLVHSDGNTYLSWLHQRPGQPPRLLIYKISNRFSGVPDRFTGSGAGTDFTLKISRVEAEDVGVYYCMQSTQFPRTFGQGTKVEIK
notes: Chimeric: human variable domains, mouse constant domains
binding result (human PROKR2(1-53)-hFc): no binding (tested: 25 and 100 nM antigen injected)

Reference: patent US20150266957A1 (Regeneron, published 2015)
